The nanobody polyreactivity screen of Harvey et al. (2022)

Experiment: yeast display, Sf9 membrane polyspecificity reagent, FACS + sequencing; frameworks hold sequencing errors
How it was run: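 A nanobody's polyreactivity label depends on the gate it was sorted from. Yeast display cells were stained with 10% biotinylated, detergent-solubilized Sf9 membrane reagent for 1 hour at 4 °C, enriched on streptavidin microbeads and sorted by FACS. The low and high (top ~1%) gates were set on anti-HA fluorescence for expression and streptavidin fluorescence for reagent binding.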

Sequence | polyreactivity (PSR sort gate)
QVQLVESGGGLVQAGGSLRLSCAASGSIFLYYAMGWYTQAPGKERELVASISSTGSTYYADSVKGRFTISRDNAKNTVYLLINSLKPEDTGVYYCAKRRWYYYPRYSLSTQMDYWGQGTQVTVSS | high polyreactivity
QVQLVESGGGLVQAGGSLRLSCAASGITIKRYDMGWYRQAPGKEREFVATISQSGTSTYYADSVKGRFTISRDNAKNTVYLQMNSLKPEDTAVYYCAAYYIGYWYGYYSWGQGTQVTVSS | low polyreactivity
QVQLVESGGVLVQAGGSLRLSCAASGGIFGNYAMGWYRQAPGKERELVAVIDSSDGSTHYADSVKGRFTISRDNAKITVYLQMNSLKPEDTALYYCATQGFWNYWTFDYWGQGTQVTVSS | low polyreactivity
QVQLVESGGGLVQAGGSLRLSCAASGSTFYGYAMGGYRQAPGKERELVAAISSSGGTTYYADSVKGRFTMSRDNAKNTVYLQMNSLKPEDTAVYYCAARRRSGTYWRSANDYWGQGTQVTVSS | high polyreactivity
QDQLVESGGGLVQAGGSLRLSCAASGFIFFGYAMGWYRQAPGKERELVAAITSGGSTYYADSVKGRFTISRDNAKNTVYLQMNSLKPEDTAVYYCAAVLWYGSKRYGYWGQGTQVTVSS | high polyreactivity
QVQLVESGGGLVQAGGSLRLSCAASGIIFKLNAMGWYRQAPGKEREFVAAITRRGGITFYADSVKGRFTISRDNAKNTVYLQMNSLKPEDTAVYYCAASPGRRRRPYASLIRYDYWGQGTQVTVSS | high polyreactivity
QVQLVDSGGGLVQAGGSLGLSCAASGSIVKYYAMGWYRQAPGKEREVVAAISSIGGRPYYADSVKGRFTISRDNAKNTVYLQRNSLKPEDTSVFYCARRFRRTGESEYEYWGQGTQVTVSS | high polyreactivity
QVQLQESGGGLVQAGGSLRLSCAASGYISLAQTKGWYRQEPGKEREFVASIALGSSTYYTDSVKGSFTISRDNAKTTVYLQMNSVKPEDTAVYYCAARVGASYAHDFWGQGTQVTVSS | low polyreactivity
QVQLVESGRGLVQAGGSLRISCAASGFTFRKYTMGWNRQAPGKERELVAAISRRGGSTYYADSVKSRFTISRDNAKNTVYLQMNSLKPEVTAVYYCATDHIPSVGVDYWGQGTQVTVSS | high polyreactivity
QVQLVESGGGLVQAGGSLRLSCAASGFIFYSNAMGWYRQAPGKERELVAAISRRGGSTYYADSVKGRFTISRDNAKNTVYLQMNSLKPEDTAVYYCAATFKSGMDYWGQGTQVTVSS | high polyreactivity
QVQLEESAGGLVQAGGSLRLSCAASGRIFVRNAMGWYRQAPGKERELVADITNGGSTNYADSVKGRFTISRDNAKNTVYLQMNSLKPEDTAVYYCAATYPYSWVYSGYYYWGHGTQVTVSS | low polyreactivity
QVQLVESGGGLVQAGGSLRLICAASGYTFGYYAMGWYRQAPGKERELVAAISWRGARTNYADSVEGRFTISRDNAKNTVYLQMNSLKPEDTAVYYCAARGGYYQGRYKYGYWGQGTQVTVSS | high polyreactivity
QVQLVESGGGLVQAGGSLRLSCAASGIILHYYTMGWYRQAPGKERELVAAITFSGGGTYYADSVKGRFTISRDNAKNTVYLQMNSLKPEDTAVYYCAAPWRYYGHDYWGQGTQVTVSS | low polyreactivity
QVQLVESGGGLVQAGGSLRLSCAASGFTFEKYAMGRYIQAPGKERELDASISWSGGRTRYADSVKGRFTISRDNAKNTVYLQMNSLKPEDTAVYYCAARPLFGWRGYNYWGQGTQVTVSS | high polyreactivity
QVQLVDSGGGLVQAGGSLRLSCAASGRTFRHNAMGWYRQAPGKERELVATISNRGGTSYYADSVKGRFTISRDNANNTVYLQMNSLKPEDTAVYYCAARVGVLGYVRYGYWGHGTQVTVSS | low polyreactivity
QVQLVDSGGGLVQAGGSLRLSCAAYGSIFKYYCMGWYRQAPGKERELVATISKRGGSTYYADSVKGRFTISRDNAKNSVYLQMNSLKPEDTAVYYCAKDSPALRPLTWQQLYDFWGQGTQVTVSS | high polyreactivity
QVQLVEAGGGVVQAGGSLRLSCAASGIIFYPYALGWYRQAPGKERELVADITSGGGTNYADSVKGRFTISRDNAKNTVYLQMNSLKPEDTAVYDCAAEVRGYHWGTYYEFYYWGQGTQVTVSS | low polyreactivity
QVQLVESGGGLVQAGGSLRLSCAASGNIFSAYTMGWYRQAPGKERELVAAITGGTSTHYADSVKGRFTISRDNAKNTVYLQMNSLKPEDTAVYYCAADQGRYGIIGWDDYWGQGTQVTVSS | low polyreactivity
QVQLVESGGALVQAGGSLRLSSAASGITFSRYAMGWYRQAPGKERELVARISSSGGSTNYADSVKGRFTISRDNAKNTVYLQMNSLKPEDTAVYYCAGATRGKVARRVTFDYWGQGTQVTVSS | high polyreactivity
QVQLVESGGGLVQAGGSLRLSCAASGRIFYFNTMGWYRQAPGKERELVAAITGSGSSTYYADSVKGRFTISRDNAKNTVYLQMNSLKPEDTAVYYCAAYGFSRNGYTYGHDDWGQGTQVTVSS | low polyreactivity
QVQLVESGGGLVQAGGSLRLSCAASGSIFRGYAMGWYRQEPEKERELVAAMSRRGGSTYYADSVKGRFSISRDNAKNTVYLQMNSLKPEDTAVYYCAKDGTGAGNYDYWGQGTQVTVSS | low polyreactivity
QVQLVESGGGLVQAGGSLRLSCAASGRIFTQNAMGWNRQAPGKERELVAAISYSGVSTYYADSVKGRFTISRDNAKNTVYLQMNSLKPEDTAVFYCARRYWYPDAFYRYDYWGLGTQVTVSS | low polyreactivity

Sequence | polyreactivity (PSR sort gate)
QVQLVESGGGLVQAGGILRLSCAASGRTFGGNAIGWYRQAPGKERELVAAITVSAGHTYYADSVKGRFTISRDNAKNTVYLQMNSLKPEDTAVYYCAAGVPYYWSYVWKHPRFDHWGQGTQVTVSS | low polyreactivity
QVQLVESGGGLVQAGGSLLLSCAASASTISYKAMGWYRHAPGQETELVAAIDRSVSTNYADSVKGRFTISRDNAKNTVYLQMNSLKPEDTAVYYCNARHPTDDIVIYDYWGQGTQVTVSS | low polyreactivity
QVQLVESGGGLVQAGGSLRLSCPAYGSTFGEYAMGWYRQKPGKERELVATITSAGSTYYADSVKGRFTISRDNAKNTVYLLMNSLKPEDTAVYYCAVDPISQGHMDYWGQGTQVTVSS | low polyreactivity
QVQLVESGGGLVQAGGSLRLSGAASGRTFRKYAMGWYRQAPGKERELVAAISWSGGSTYYANSVKGRFTISRDNAKNTVYLQMNSLKPEDTAVYYCAAVPVHTGSLYWGFTTGYDYWGQGTQVTVSS | low polyreactivity
QVQLVESGGGLVQAGGSLRLSCAASGSIFTVYAMGWYRPAPGTERELVARISSGAGTTYADSVKGRFTISRDNAKNTVYVQMKSLTPEDTAVYYCAAYTWDTDHYWYGYVPYDYWGQGTQVSVSS | low polyreactivity
QVQLVESGGGLVQAGGSLRLSCAASGSIFFTYAMGWYRQAPGKERELVAGISWGGGSTHYADSVKGRFTISRDNAKNTVYLQMNSLKPEDTAVYYCARVWPYPSTEYGYTGRLYDYWGQGTQVTVSS | low polyreactivity
HVQLVESGVGLVQAGGSLRLRCAASGRTLSVYAMGWYRQAPGKERELVAAITIRGGRTYYADSVKGRFTISRDNAKNTVYLQMNSLKPEDTAVYYCAAPPYVKMDYWGQGTQVTVSS | high polyreactivity
QVQLVESGGGLVQAGGSLRLSCAASGFPFSRYARGWSRQAPGTERELVATITARGGTTYYADSVKGRFTISRDNAKNTVYLQMNSLKPEDTAVYYCNAKAYYRPYYDYDYGGQGTQVTVSS | high polyreactivity
QVQLVESGGGLVQAGGSLRLSCAASGRIFHRNAMGWYRQAPGKERELVARITRSGTSTYYADSVKGRFTISRDNAKNTVYLQMNSLKQEDTAVYYCAADNASPSLGEYNYWGQGTQVTVSS | low polyreactivity
QVQLVESGGGLVQAGGSLRLSCAASGFIFPQYAMGWYRQAPGKERELVAAISWSGTRTYYADSVKGRFTISRDNAKNTVYLQMNSLKPEDTAVYYCAARIDRQYRWTGFGYWGQGTQVTVSS | high polyreactivity
QVQLVESGGGLVQAGGSLRLSCAASGRTFNYNSMGWYRQAPGKERELVAAISATGGTTYYADSVKGRFTISRDNAKNTVYLQMNSLKPEDTAVYYCAADTPPYYAYWDVSFEYYYWGQGTQVTVSS | low polyreactivity
QVQLVESGGGLVQAGGSLRLSCAASGRIFPVYVMGSYREAPGKEREFVASISWRGGSTFYADSVKGRFTISRDNAKNTVYLQMNSLKPEDTAVYYCAADYWSSDSSRGTMYYWGQGTQVTVSS | low polyreactivity
QVQLVESGGGLVQAGGSLRLSCAASGSICVQYAMGRSRQAPGKERELVAAISNSGGSTYYADSVKGRFTISRDTAKNTVYLQMNSLKPEDTAVYYCAARYHTRGAGRPYYYWGQGTQVTVSS | high polyreactivity
QVQLVESGGGLVQAGGSLRLSCAASGSTFAPNAMGWYRQAPGKERELVAAIRFDTGSTYYADSVKGRFTISRDNAKNTVYLQMNSLKPEDTAVYYCAAYNHYLSESDYWGQGTQVTVSS | low polyreactivity
QVQLVESGGGLVQAGGSLRLSCAASGSIFKYYTMGWYRPAPGKERELVAAITWRGGRTYYADSVKGRFTISRDNAKNTVYLQMNSLKPEDTAVYYCNTASWGFASYYYTYNYWGQGTQVTVSS | high polyreactivity
QVQLVESGGGLVQAGGSLRLSCAASGRIFRNYAMGWYRQATGKERELVAAISTRSGSTYYADSVKGRSTISRDNAKNTVYLQMNSLKPEDTAVYYCNKVSVGRYYALYYWGQGTQVTVAS | high polyreactivity
QVQLVESGGGLVQAGGSLRLSCAASGSTSRSAMGWYRQAPGKERELVASITRGGSTYYADSVKGRFTISRDNAKNTVYLQMNSLKPEDTAVYYCAARFPQHNYWAMDYWGQGTQVTVSS | high polyreactivity
QVQLQESGGGLVQAGGSLRLSCAASGNIFEADIMGWNHQAQGKERELVASITDGGSTNYADSVKGRFTINRDNAKNNVYLQMNSLKPEDTAVYYCAAFAYPDIPTYFDYDIFTYWGQGTQVTVSS | high polyreactivity
QVQLVESGGGLVQAGGSLLLSCAASGRTFNVYAMGRYRQAPGKERELVAAINRGGRTNYADSVKGRYTISRDNAKNTVYLQMNSLKPEDTAVYYCAALRVYVNWHKIGYDYWGQGTQVTVSS | low polyreactivity
QVQLVESGGGLVQAGGSLRLSCAASGSTFGWNAMGWYRQAPGKERELVAAISSSGGITYYADSVKGRFTISRDNAKNTVYLQMNSLKPEDSAVYYCAAERDDDWVNYWGQGTQVTVSS | low polyreactivity
QVQLVESGGGLVQAGGSLRLSCAASGSIFTLNAMGWYRQAPGKERELVAAIRWSGGSTYYADSVKGRFTISRDNAKNTVYLQMNSLKPEDTAVYYCAAKYPSDYYSRGFNYWGQGTQVTVSS | high polyreactivity
